How the values were obtained:
[1] = biological target: E. coli MukB(R771C)-HaloTag with natural C730 (E. coli) (UniProt P22523); test: cross-linking; in vivo BMOE combinatorial cysteine cross-linking, cells grown to stationary phase; SDS-PAGE and in-gel fluorescence of MukB-HaloTag-TMR
[2] = biological target: E. coli MukB(G67C, R771C)-HaloTag with natural C730 (E. coli) (UniProt P22523); test: as above
[3] = biological target: E. coli MukB(G67C, E1407Q)-HaloTag (E. coli) (UniProt P22523); test: cross-linking; in vivo BMOE cysteine cross-linking of E. coli cells in exponential phase, 10 min on ice in PBS; SDS-PAGE and in-gel fluorescence of MukB-HaloTag-TMR
[4] = biological target: E. coli MukB(G67C, D1406A)-HaloTag (E. coli) (UniProt P22523); test: as above
[5] = biological target: E. coli MukB(G67C)-HaloTag (E. coli) (UniProt P22523); test: as above
[6] = biological target: E. coli MukB(G67C)-HaloTag (E. coli) (UniProt P22523); test: cross-linking; in vivo BMOE combinatorial cysteine cross-linking, cells grown to stationary phase; SDS-PAGE and in-gel fluorescence of MukB-HaloTag-TMR

E. coli MukB(R771C)-HaloTag with natural C730 (from UniProt P22523 1-1486) (natural protein)
cross-linking efficiency [1]: 62%

E. coli MukB(G67C, R771C)-HaloTag with natural C730 (from UniProt P22523 1-1486) (natural protein)
MukB species cross-linked at the heads [2]: 12%

E. coli MukB(G67C, E1407Q)-HaloTag (from UniProt P22523 1-1486) (natural protein)
cross-linked fraction [3]: 30%

E. coli MukB(G67C, D1406A)-HaloTag (from UniProt P22523 1-1486) (natural protein)
cross-linked fraction [4]: 21%

E. coli MukB(G67C)-HaloTag (from UniProt P22523 1-1486) (natural protein)
cross-linked fraction [5]: 22%
MukB species cross-linked at the heads [6]: 29%

— article PMC8669397
